To fix the notation:
B1: chimpanzee Fab 7G4 (Fab, V domains shown)
VH: EVQLLESGGGLVQPGGSLTLSCAASGFTFSSYWMHWVRQAPGKGPEWVALIKKDGSEKYYAESVKGRFTISRDNAKNSLYLQMNSLRAEDTAVYYCTRRITTLTVISDAFDIWGQGTMVTVSS
VL: ELTQSPSTLSASVGDRVTITCRASQGISSWLAWYQQKPGKAPKFLIYKASSLESGVPSRFSGSGSGTEFTLTISSLQPDDFATYYCQQYGSYPLTFGPGTKVDIKR
B2: chimpanzee Fab 3C1 (Fab, V domains shown)
VH: EVQLLESGAEVKKPGGSVKVSCKVSGGTLSSYGISWVRQAPGQGPEWMGVIIPIRGTANYAQKFQGRVTYTADESTSTVYMELSSLRSEDTAVYYCATGRRGRYPTGSFDYWGQGALVTVSS
VL: ELQMTQSPSTLSASVGDRVTVTCRASEDLNKWLAWYQQKPGKAPKLLIYKASSLESGVPSRFSGSGSGTEFTLTISSLQPDDFATYYCQQYQSYPYTFGPGTKLEIKR
B3: chimpanzee Fab 3E4 (Fab, V domains shown)
VH: VQLLEQSGAEVKKPGGSVKVSCKVSGGTFSRNPISWVRQAPGQGLEWMSVIVPIVGTTKHAQKFQGRVTITADESTSTAYMELSSLRSEDTAVYYCATYRRYADVSSYSEYWGQGTLVTVSS
VL: ELTQSPLSLPVTLGQPASISCRSSQNLVHSDGNTYLSWIQQRPGQPPRLLIYKVSNRDSGVPDRFSGSGAGTDFTLKITRVEAEDVGLYYCVQGVQFPITFGQGTKLEIKR
B4: chimpanzee Fab 2H7 (Fab, V domains shown)
VH: EVQLLESGGGLVQPGGSRRLSCAASGFTISDNVMHWVRQAPGKGLEWVALIYSADSTHYADSVKGRFTISRDNSKNTLYLQMDGLRPEDTAVYYCAREYCTGGTCFAHFDYWGQGTLVTVSS
VL: ELQMTQSPSSLSASVGDRVTITCRASQSITNYLSWYQQKPGKAPKLLISYSSTLQSGVPSRFSGSGSGTDFTLTISSLQPEDFATYYCHYGYGTHTFGPGTKVDIKR
B5: chimpanzee Fab 3A2 (Fab, V domains shown)
VH: B4 VH with E1V, V2Q, Q3L, L5E, E6Q, A24V, S56T, G84S
VL: ELTQSPSSVSASVGDTVTIACRASQSITNYLSWYQQKPGKAPKLLIYHASTLQSGIPSRFSGSGSGTDFTLTISSLQPDDFATYYCHYGYGTHTFGQGTKLEIKR
B6: chimpanzee Fab 1B2 (Fab, V domains shown)
VH: EVQLLESGPGLVKPSQTLSLTCAVSGGSITSDHYFWSWMRQAPGRGLEWIGYISYRGTTYYNPSLKSRVTMSVTAAKNTLYLQMDGLRPEDTAVYYCARASVTAGMPAAGTLDHWGQGTLVTVSS
VL: ELQMTQSPSSLSASVGDRVTITCRASQGISSELNWYQQKPGKAPKLLIYDASSLESGVPSRFSGSGSGTDFTLTISSLQPEDFATYYCQHFNSFPWTFGQGTKLEIKR
B7: chimpanzee Fab 1A10 (Fab, V domains shown)
VH: VQLLEESGAEVKKPGSSVKVSCKVSGGTFSRNPISWVRQAPGQGLEWMGVIVPIVGTTKHAQKFQGRVTIIADESTSTAYMELSSLRSEDTAVYYCATYYADGSSYSEYWGQGTLVTVSS
VL: ELQMTQSPLSLSVAPGQPASISCKSSQSLLHSDGNTYLFWYLQKSGQSPQLLIYGLSNRASGVPDRFSGSGSGTDFTLKISQVEAEDVGVFYCMQGTQLPYTFGQGTKLEIKR

Where a chain is given by its changes, count along the chain named.

In the first assay the target is T1, dengue type 4 virus (DENV-4), strain 814669, virions (dengue type 4 virus, UniProt P09866 280-774; P09866 114-279). The assay is described as follows: cell-based or functional assay.
Turning to B1, the “PRNT50 titer” value is 121 µg/mL.

On to B2, for which the “PRNT50 titer” value was above 200 µg/mL.

Regarding B3, the “PRNT50 titer” value stood at 91 µg/mL.

For the next assay, the target named is T2, dengue type 1 virus (DENV-1), Western Pacific strain, virions (dengue type 1 virus, UniProt P17763 281-775; P17763 115-280). The assay is described as follows: cell-based or functional assay.
Turning to B4, the “PRNT50 titer” value amounted to 0.26 µg/mL.

Regarding B5, the “PRNT50 titer” value worked out at 0.37 µg/mL.

With B6, the “PRNT50 titer” value turned out to be 0.5 µg/mL.

As to B3, the “PRNT50 titer” value amounted to 42.7 µg/mL.

Take B7: the “PRNT50 titer” value amounted to 0.94 µg/mL.

For another assay, the target named is T3, dengue type 2 virus (DENV-2), prototype New Guinea C strain, virions (dengue type 2 virus, UniProt P14340 281-775; P14340 115-280). The assay is described as follows: cell-based or functional assay.
Turning to B4, the “PRNT50 titer” value came to 0.33 µg/mL.

With B5, the “PRNT50 titer” value turned out to be 1.33 µg/mL.

B6: the “PRNT50 titer” value stood at 3.13 µg/mL.

With B3, the “PRNT50 titer” value is above 100 µg/mL.

Turning to B7, the “PRNT50 titer” value worked out at 5.26 µg/mL.

A further assay has as its target T4, dengue type 3 virus (DENV-3), strain H87, virions (dengue type 3 virus, UniProt P27915 281-773; P27915 115-280). Description: cell-based or functional assay.
For B4, the “PRNT50 titer” value stood at 5.92 µg/mL.

On to B5, for which the “PRNT50 titer” value stood at 2.99 µg/mL.

On to B6, for which the “PRNT50 titer” value is above 100 µg/mL.

As to B3, the “PRNT50 titer” value was above 100 µg/mL.

Consider B7, for which the “PRNT50 titer” value stood at 26.3 µg/mL.

The target in another assay is T1, dengue type 4 virus (DENV-4), strain …. The assay is described as follows: cell-based or functional assay. This is another data set of the same source.
Regarding B4, the “PRNT50 titer” value was 7.26 µg/mL.

Take B5: the “PRNT50 titer” value turned out to be 4.71 µg/mL.

For B6, the “PRNT50 titer” value was 29.2 µg/mL.

As for B3, the “PRNT50 titer” value was 40.5 µg/mL.

As to B7, the “PRNT50 titer” value was 12.6 µg/mL.

A further assay has as its target T2, dengue type 1 virus (DENV-1), Western …. The assay is described as follows: ELISA, virion-coated plate, Fab from ~300 µg/ml.
As for B1, the “ELISA titer of Fab binding” value was 4.01 log10 of reciprocal dilution.

In the case of B2, the “ELISA titer of Fab binding” value is 1.3 log10 of reciprocal dilution.

As to B3, the “ELISA titer of Fab binding” value is 4.61 log10 of reciprocal dilution.

For a further assay, the target named is T3, dengue type 2 virus (DENV-2), prototype …. Description: ELISA, virion-coated plate, Fab from ~300 µg/ml.
For B1, the “ELISA titer of Fab binding” value was 4.01 log10 of reciprocal dilution.

Take B2: the “ELISA titer of Fab binding” value is 3.11 log10 of reciprocal dilution.

B3: the “ELISA titer of Fab binding” value is 4.31 log10 of reciprocal dilution.

The target in a further assay is T4, dengue type 3 virus (DENV-3), strain …. Description: ELISA, virion-coated plate, Fab from ~300 µg/ml.
As for B1, the “ELISA titer of Fab binding” value was 4.01 log10 of reciprocal dilution.

As to B2, the “ELISA titer of Fab binding” value is 1.3 log10 of reciprocal dilution.

In the case of B3, the “ELISA titer of Fab binding” value was 4.61 log10 of reciprocal dilution.

The next assay concerns the target T1, dengue type 4 virus (DENV-4), strain …. Description: ELISA, virion-coated plate, Fab from ~300 µg/ml.
For B1, the “ELISA titer of Fab binding” value is 4.01 log10 of reciprocal dilution.

On to B2, for which the “ELISA titer of Fab binding” value was 3.71 log10 of reciprocal dilution.

As for B3, the “ELISA titer of Fab binding” value is 4.61 log10 of reciprocal dilution.

The next assay deals with T2, dengue type 1 virus (DENV-1), Western …. The assay is described as follows: ELISA, virion-coated plate, Fab from ~140 µg/ml.
On to B4, for which the “ELISA titer of Fab binding” value is 4.1 log10 of reciprocal dilution.

On to B5, for which the “ELISA titer of Fab binding” value was 4.1 log10 of reciprocal dilution.

For the molecule B6, the “ELISA titer of Fab binding” value was 3.9 log10 of reciprocal dilution.

Take B3: the “ELISA titer of Fab binding” value is 4 log10 of reciprocal dilution.

B7: the “ELISA titer of Fab binding” value is 4.1 log10 of reciprocal dilution.

Another assay concerns the target T3, dengue type 2 virus (DENV-2), prototype …. Description: ELISA, virion-coated plate, Fab from ~140 µg/ml.
As to B4, the “ELISA titer of Fab binding” value is 3.8 log10 of reciprocal dilution.

For the molecule B5, the “ELISA titer of Fab binding” value is 3.8 log10 of reciprocal dilution.

For B6, the “ELISA titer of Fab binding” value is 3.8 log10 of reciprocal dilution.

Consider B3, for which the “ELISA titer of Fab binding” value was 3.8 log10 of reciprocal dilution.

For the molecule B7, the “ELISA titer of Fab binding” value is 3.8 log10 of reciprocal dilution.

A further assay deals with T4, dengue type 3 virus (DENV-3), strain …. Description: ELISA, virion-coated plate, Fab from ~140 µg/ml.
With B4, the “ELISA titer of Fab binding” value is 3.6 log10 of reciprocal dilution.

Turning to B5, the “ELISA titer of Fab binding” value was 3.8 log10 of reciprocal dilution.

Turning to B6, the “ELISA titer of Fab binding” value is 3.8 log10 of reciprocal dilution.

For B3, the “ELISA titer of Fab binding” value is 3.6 log10 of reciprocal dilution.

As to B7, the “ELISA titer of Fab binding” value is 3.6 log10 of reciprocal dilution.

For another assay, the target named is T1, dengue type 4 virus (DENV-4), strain …. Description: ELISA, virion-coated plate, Fab from ~140 µg/ml.
Turning to B4, the “ELISA titer of Fab binding” value was 3.8 log10 of reciprocal dilution.

For the molecule B5, the “ELISA titer of Fab binding” value is 3.8 log10 of reciprocal dilution.

As to B6, the “ELISA titer of Fab binding” value is 3.8 log10 of reciprocal dilution.

With B3, the “ELISA titer of Fab binding” value is 3.8 log10 of reciprocal dilution.

Take B7: the “ELISA titer of Fab binding” value was 3.8 log10 of reciprocal dilution.

The next assay deals with T5, DENV-4 E glycoprotein (dengue type 4 virus, UniProt P09866 280-774).
T5 construct: also called vDENV-4 E product
Description: radioimmunoprecipitation of E expressed alone by recombinant vaccinia virus.
For B2, the binding result is “no binding”.

The target in the next assay is DENV-4 prM glycoprotein (dengue type 4 virus, UniProt P09866 114-279). Description: radioimmunoprecipitation of prM expressed alone by recombinant vaccinia virus.
As to B1, the binding result is given as “no binding”.

For the molecule B3, the binding result is recorded as “no binding”.

The record behind these values is patent publication US20070134256A1 (US Dept. of Health and Human Services, published 2007).
